Measured values as given in the supplement of paper PMC7877785.
± gives the uncertainty stated by the source.

Assay: self-splicing fitness, log relative to wild type (ln ratio); higher = more splicing; Tetrahymena group I intron in knt gene, E. coli kanamycin selection, DiMSum; sequences stand for … in CUCUCU…GGAGGGAAAAGUUAUCAGGCAUGCACCUGGUAGCUAGUCUUUAAACCAAUAGAUUGCAUCGGUUUAAAAGGCAAGACCGUCAAAUUGCGGGAAAGGGGUCAACAGCCGUUCAGUACCAAGUCUCAGGGGAAACUUUGAGAUGGCCUUGCAAAGGGUAUGGUAAUAAGCUGACGGACAUGGUCCUAACCACGCAGCCAAGUCCUAAGUCAACAGAUCUUCUGUUGAUAUGGAUGCAGUUCACAGACUAAAUGUCGGUCGGGGAAGAUGUAUUCUUCUCAUAAGAUAUAGUCGGACCUCUCCUUAAUGGGAGCUAGCGGAUGAAGUGAUGCAACACUGGAGCCGCUGGGAACUAAUUUGUAUGCGAAAGUAUAUUGAUUAGUUUUGGAGUACUCGUGGUCG
Outline: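 The eight P1ex-region nucleotides of an intron in the knt kanamycin-resistance gene on pET-22b(+) were all randomised and the library put into E. coli BL21(DE3). Six replicate transformations were grown overnight at 37°C or 30°C on LB agar with or without 25 μg/mL kanamycin, together with 100 μg/mL carbenicillin, 50 μM IPTG and 0.2% rhamnose. Colonies were pooled and amplicon-sequenced on an Illumina HiSeq 2500. Fitness from DiMSum is the error-weighted combination of wild-type-normalised replicate fold changes, kanamycin over none.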

Sequence | self-splicing fitness (ln) (30 °C) | self-splicing fitness (ln) (37 °C)
GGAUAGCAAUAUUACGCCUA | -1.45 ± 0.14 | -0.0155 ± 0.17
GGAUAGCAAUAUUACGCUGG | -2.25 ± 0.15 | -1.05 ± 0.18
GGAUAGCAAUAUUACGGAGU | -2.95 ± 0.34 | -2.16 ± 0.42
GGAUAGCAAUAUUACGGAUU | -1.79 ± 0.12 | -0.787 ± 0.12
GGAUAGCAAUAUUACGGCAG | – | -2.18 ± 0.22
GGAUAGCAAUAUUACGGUGG | -3.85 ± 0.18 | -2.48 ± 0.14
GGAUAGCAAUAUUACGUACA | -1.42 ± 0.097 | -0.395 ± 0.098
GGAUAGCAAUAUUACGUAUG | -1.66 ± 0.28 | -0.951 ± 0.23
GGAUAGCAAUAUUACGUGAG | -1.33 ± 0.11 | 0.321 ± 0.1
GGAUAGCAAUAUUACGUGAU | -2.44 ± 0.06 | -1.06 ± 0.074
GGAUAGCAAUAUUACGUUGU | -3.13 ± 0.2 | -1.58 ± 0.15
GGCAAGCAAUAUUACGAAAC | -0.925 ± 0.13 | -0.903 ± 0.16
GGCAAGCAAUAUUACGAGUU | -1.94 ± 0.081 | -0.521 ± 0.088
GGCAAGCAAUAUUACGCGAC | -3.25 ± 0.23 | -2.23 ± 0.27
GGCAAGCAAUAUUACGCGAU | -2.6 ± 0.25 | -2.37 ± 0.24
GGCAAGCAAUAUUACGCGCC | – | -1.77 ± 0.28
GGCAAGCAAUAUUACGCGGA | -0.732 ± 0.095 | -0.268 ± 0.094
GGCAAGCAAUAUUACGCGUA | -0.585 ± 0.065 | -0.212 ± 0.076
GGCAAGCAAUAUUACGCUAG | -3.39 ± 0.24 | -2.83 ± 0.37

Sequence | self-splicing fitness (ln) (30 °C) | self-splicing fitness (ln) (37 °C)
GGCAAGCAAUAUUACGCUGU | -4.24 ± 0.23 | -2.05 ± 0.2
GGCAAGCAAUAUUACGCUUU | -1.58 ± 0.12 | -0.416 ± 0.12
GGCAAGCAAUAUUACGGAUG | -2.34 ± 0.15 | -0.798 ± 0.15
GGCAAGCAAUAUUACGGCCC | -3.62 ± 0.36 | -1.85 ± 0.3
GGCAAGCAAUAUUACGUAAC | -0.613 ± 0.064 | -0.533 ± 0.089
GGCAAGCAAUAUUACGUUCA | -0.364 ± 0.092 | 0.553 ± 0.11
GGCAAGCAAUAUUACGUUUA | -1.29 ± 0.1 | -0.0113 ± 0.11
GGCCAGCAAUAUUACGAAUG | -4.74 ± 0.39 | -2.17 ± 0.22
GGCCAGCAAUAUUACGAAUU | -3.05 ± 0.19 | -1.03 ± 0.11
GGCCAGCAAUAUUACGAGAA | – | -2.06 ± 0.36
GGCCAGCAAUAUUACGAGUG | -2.55 ± 0.11 | -1.14 ± 0.093
GGCCAGCAAUAUUACGAUUG | -3.73 ± 0.2 | -1.74 ± 0.16
GGCCAGCAAUAUUACGCAAA | -3.09 ± 0.24 | -1.02 ± 0.12
GGCCAGCAAUAUUACGCAAU | -1.17 ± 0.098 | -1.2 ± 0.09
GGCCAGCAAUAUUACGCAGA | -1.66 ± 0.082 | -1.28 ± 0.08
GGCCAGCAAUAUUACGCAUC | -0.0388 ± 0.15 | 0.0683 ± 0.16
GGCCAGCAAUAUUACGCCUC | -0.497 ± 0.13 | -0.06 ± 0.15
GGCCAGCAAUAUUACGCUUU | -0.464 ± 0.064 | 0.4 ± 0.087
GGCCAGCAAUAUUACGGCGG | -0.775 ± 0.1 | -1.53 ± 0.15
